The text below walks through data of patent publication US20160102316A1, “STRESS TOLERANT PLANTS” (CONSEJO SUPERIOR DE INVESTIGACIONES CIENTIFICAS(CSIC), priority 2013, published 2016).

B4: DDA1 fused to the binding domain of GAL4 (pGBKT7-DDA1) (other)
chain: MKLLSSIEQACDICRLKKLKCSKEKPKCAKCLKNNWECRYSPKTKRSPLTRAHLTEVESRLERLEQLFLLIFPREDLDMILKMDSLQDIKALLTGLFVQDNVNKDAVTDRLASVETDMPLTLRQHRISATSSSEESSNKGQRQLTVSMASILGDLPSFDPHNFSQHRPSDPSNPSKMVPTTYRPTHNRTLPPPDQVITTEVKNILIRSFYQRAEEKLRPKRPATDHLAAEHVNKHFRAASSSSSTQGL
notes: Other vector-encoded residues of pGBKT7 are not described; also called AtDDA1; DET1-, DDB1-Associated 1

Assay [1] concerns the target T1, YFPN:PYL8 (Arabidopsis, UniProt Q9FGM1 1-188).
T1 construct: BiFC construct expressed transiently in N. benthamiana leaves; also called PYL8 fusion with the N-portion of YFP; not shown: N-portion of the yellow fluorescent protein (YFP)
T1 sequence (looked up): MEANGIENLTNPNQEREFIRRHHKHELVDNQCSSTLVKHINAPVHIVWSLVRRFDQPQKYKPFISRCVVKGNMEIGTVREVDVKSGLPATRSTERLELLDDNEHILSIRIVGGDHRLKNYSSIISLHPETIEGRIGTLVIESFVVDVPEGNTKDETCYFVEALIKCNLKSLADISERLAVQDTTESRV
Kind of assay: BiFC in N. benthamiana epidermal cells. The procedure: To confirm that DDA1 and PYL8 interact in planta, we performed bimolecular fluorescence complementation (BiFC) assays. N. benthamiana leaves were coinfiltrated with Agrobacterium tumefaciens cells to express DDA1 and PYL8 fusions with the Nor C-portions of the yellow fluorescent protein (YFP). The infiltrated leaves were analyzed under the confocal fluorescence microscope 3 d after infiltration.
YFPN:PYL8/DDA1:YFPC were co-infiltrated into the abaxial surface of 3-week-old N. benthamiana plants as described (Voinnet et al., 2003). The p19 protein was used to suppress gene silencing. The empty vectors were used as negative controls. Fluorescence was visualized in epidermal cells of leaves after 3 d of infiltration using a Leica sp5 confocal microscope. Nuclei were visualized after submerging the leaves in a DAPI solution (1 μg mL-1 DAPI in 100 mM phosphate buffer, 0.5% Triton X-100).

Assay [2] addresses B4. Kind of assay: yeast two-hybrid. The procedure: (§1) (A) Y187 yeast cells transformed with pGBKT7-DDA1 were used to screen a cDNA library prepared from Arabidopsis seedlings in the pGADT7 vector and transformed into AH109 cells. Positive clones included truncated versions of ABA receptors PYL4 and PYL9. Yeast clones were grown in selective media containing different concentrations of 3AT (ranging 0.5 to 5 […]). Empty pGADT7 vector was used as negative control. (B-C) DDA1 interaction with full length PYL8 (B), PYL4, PYL5, PYL6 or PYL9 (C) was assessed using yeast two hybrid experiments as in (A). Physical association between PYL8 and other components of the CDD complex (DDB1a, DDB1b, DET1 and COP10) was also tested (B).
(§2) The molecular basis of DDA1 activity is unknown. To get insights into its mechanism of action, we searched for proteins that interact with DDA1. With this aim, we conducted a yeast two-hybrid screen using DDA1 as bait. Thus, the full-length coding sequence of DDA1 fused to the binding domain of GAL4 was used to screen a cDNA library prepared from Arabidopsis seedlings. From over 15 million clones screened, 200 were identified as potential DDA1 interactors. Among them, 20 were subsequently confirmed by retransformation into yeast. […] We aimed to determine whether DDA1 interacts with full length PYL4 and PYL9 and with other Arabidopsis PYR/PYL/RCAR family members using yeast two hybrid assays.
(§3) The full length DDA1 cDNA was cloned into the pGBKT7 (Gal4 DNA binding domain, BD; Clontech). […] To confirm protein interactions, plasmids were co-transformed into Saccharomyces cerevisiae AH109 cells, following standard heat-shock protocols (Chini et al., 2007).

Assay [3] has as its target T2, full length PYL8 (Arabidopsis, UniProt Q9FGM1 1-188).
T2 construct: Gal4-domain fusion in the yeast two-hybrid assays; also called ABA receptor PYL8
T2 sequence (looked up): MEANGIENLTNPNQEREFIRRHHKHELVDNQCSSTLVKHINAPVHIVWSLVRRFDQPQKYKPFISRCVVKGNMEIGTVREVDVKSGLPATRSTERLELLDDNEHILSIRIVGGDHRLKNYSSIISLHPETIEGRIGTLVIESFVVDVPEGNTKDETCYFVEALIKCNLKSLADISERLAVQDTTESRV
Kind of assay: yeast two-hybrid (FIG. 4B). The procedure: as §1
The full length DDA1 cDNA was cloned into the pGBKT7 (Gal4 DNA binding domain, BD; Clontech). […] To confirm protein interactions, plasmids were co-transformed into Saccharomyces cerevisiae AH109 cells, following standard heat-shock protocols (Chini et al., 2007). Successfully transformed colonies were identified on yeast synthetic drop-out lacking Leu and Trp; these colonies were resuspended in water and transferred to selective media lacking Ade, His, Leu and Trp. Plates without His were supplemented with different concentrations of 3-amino 1,2,4-triazole (3AT; ranging 0.5-10 mM). Yeast cells were incubated at 30° C. during 6 days. Empty vectors were co-transformed as negative controls. To test the DDA1 interaction with specific DDB1a domains, DDB1a truncated versions were generated and cloned into the pGADT7 vector as follows: BPA (aa 16-350), BPB (aa 387-704), BPA+BPB (aa 16-704), BPC (aa 704-1002) and BPB+BPC (aa 350-1002). Full length DDB1a was used as a positive control.

The target of assay [4] is T3, DET1 (Arabidopsis, UniProt P48732 1-543).
T3 construct: Endogenous protein in the TAP; also called DEETIOLATED 1
T3 sequence (looked up): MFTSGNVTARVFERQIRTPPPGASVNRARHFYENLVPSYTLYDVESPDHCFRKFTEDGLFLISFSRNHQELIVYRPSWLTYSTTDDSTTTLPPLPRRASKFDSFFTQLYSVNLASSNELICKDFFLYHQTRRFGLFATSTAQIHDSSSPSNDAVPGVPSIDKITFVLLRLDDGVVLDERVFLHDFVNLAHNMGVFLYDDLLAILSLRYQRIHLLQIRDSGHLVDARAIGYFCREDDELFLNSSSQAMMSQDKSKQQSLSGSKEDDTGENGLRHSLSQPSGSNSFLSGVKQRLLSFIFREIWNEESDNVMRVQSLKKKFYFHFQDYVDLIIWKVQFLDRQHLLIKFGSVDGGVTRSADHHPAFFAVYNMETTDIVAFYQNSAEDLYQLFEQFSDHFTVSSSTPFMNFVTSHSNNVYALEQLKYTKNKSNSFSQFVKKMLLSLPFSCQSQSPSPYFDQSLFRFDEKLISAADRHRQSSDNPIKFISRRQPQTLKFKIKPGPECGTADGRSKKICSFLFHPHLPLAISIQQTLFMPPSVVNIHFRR
Kind of assay: yeast two-hybrid. As to the method: as §1, §2, §3

B1: DDA1:YFPC (other)
chain: MASILGDLPSFDPHNFSQHRPSDPSNPSKMVPTTYRPTHNRTLPPPDQVITTEVKNILIRSFYQRAEEKLRPKRPATDHLAAEHVNKHFRAASSSSSTQGL
notes: BiFC construct expressed transiently in N. benthamiana leaves; also called DDA1 fusion with the C-portion of YFP; not shown: C-portion of the yellow fluorescent protein (YFP)
Turning to B1, the binding result in assay [1] is given as “binds”.

B2: PYL5 (receptor, Arabidopsis, UniProt Q9FLB1 1-203, looked up)
chain: MRSPVQLQHGSDATNGFHTLQPHDQTDGPIKRVCLTRGMHVPEHVAMHHTHDVGPDQCCSSVVQMIHAPPESVWALVRRFDNPKVYKNFIRQCRIVQGDGLHVGDLREVMVVSGLPAVSSTERLEILDEERHVISFSVVGGDHRLKNYRSVTTLHASDDEGTVVVESYIVDVPPGNTEEETLSFVDTIVRCNLQSLARSTNRQ
Regarding B2, the binding result in assay [2] is “no binding”.

B3: COP10 (other, Arabidopsis, UniProt Q9LJD7 1-182, looked up)
chain: MMTPGGSGRLRPLPTAMYAGYSGTASSWVAKTSVSASGKRIQREMAELNIDPPPDCSAGPKGDNLYHWIATIIGPSGTPYEGGIFFLDIIFPSDYPFKPPKLVFKTRIYHCNVDTAGDLSVNILRDSWSPALTITKVLQAIRSIFLKPEPYSPALPVIARLYLTDREKHDEVAKEWTLRFAK
notes: Endogenous protein in the TAP; also called CONSTITUTIVE PHOTOMORPHOGENIC10
With B3, the binding result in assay [2] and in assay [3] was “no binding” each time.

B4: the binding result in assay [4] was “no binding”.

B5: PYL6 (receptor, Arabidopsis, UniProt Q8S8E3 1-215, looked up)
chain: MPTSIQFQRSSTAAEAANATVRNYPHHHQKQVQKVSLTRGMADVPEHVELSHTHVVGPSQCFSVVVQDVEAPVSTVWSILSRFEHPQAYKHFVKSCHVVIGDGREVGSVREVRVVSGLPAAFSLERLEIMDDDRHVISFSVVGGDHRLMNYKSVTTVHESEEDSDGKKRTRVVESYVVDVPAGNDKEETCSFADTIVRCNLQSLAKLAENTSKFS
B5: the binding result in assay [2] is given as “no binding”.
